# IntAct's records for PubMed 25966461
# B1: Metallothionein expression activator (Saccharomyces cerevisiae), P21192 (parent)
# chain: MDNVVDPWYINPSGFAKDTQDEEYVQHHDNVNPTIPPPDNYILNNENDDGLDNLLGMDYYNIDDLLTQELRDLDIPLVPSPKTGDGSSDKKNIDRTWNLGDENNKVSHYSKKSMSSHKRGLSGTAIFGFLGHNKTLSISSLQQSILNMSKDPQPMELINELGNHNTVKNNNDDFDHIRENDGENSYLSQVLLKQQEELRIALEKQKEVNEKLEKQLRDNQIQQEKLRKVLEEQEEVAQKLVSGATNSNSKPGSPVILKTPAMQNGRMKDNAIIVTTNSANGGYQFPPPTLISPRMSNTSINGSPSRKYHRQRYPNKSPESNGLNLFSSNSGYLRDSELLSFSPQNYNLNLDGLTYNDHNNTSDKNNNDKKNSTGDNIFRLFEKTSPGGLSISPRINGNSLRSPFLVGTDKSRDDRYAAGTFTPRTQLSPIHKKRESVVSTVSTISQLQDDTEPIHMRNTQNPTLRNANALASSSVLPPIPGSSNNTPIKNSLPQKHVFQHTPVKAPPKNGSNLAPLLNAPDLTDHQLEIKTPIRNNSHCEVESYPQVPPVTHDIHKSPTLHSTSPLPDEIIPRTTPMKITKKPTTLPPGTIDQYVKELPDKLFECLYPNCNKVFKRRYNIRSHIQTHLQDRPYSCDFPGCTKAFVRNHDLIRHKISHNAKKYICPCGKRFNREDALMVHRSRMICTGGKKLEHSINKKLTSPKKSLLDSPHDTSPVKETIARDKDGSVLMKMEEQLRDDMRKHGLLDPPPSTAAHEQNSNRTLSNETDAL
# B2: Serine/threonine-protein kinase CBK1 (Saccharomyces cerevisiae), P53894 (parent)
# chain: MYNSSTNHHEGAPTSGHGYYMSQQQDQQHQQQQQYANEMNPYQQIPRPPAAGFSSNYMKEQGSHQSLQEHLQRETGNLGSGFTDVPALNYPATPPPHNNYAASNQMINTPPPSMGGLYRHNNNSQSMVQNGNGSGNAQLPQLSPGQYSIESEYNQNLNGSSSSSPFHQPQTLRSNGSYSSGLRSVKSFQRLQQEQENVQVQQQLSQAQQQNSRQQQQQLQYQQQQQQQQQQQHMQIQQQQQQQQQQQQSQSPVQSGFNNGTISNYMYFERRPDLLTKGTQDKAAAVKLKIENFYQSSVKYAIERNERRVELETELTSHNWSEERKSRQLSSLGKKESQFLRLRRTRLSLEDFHTVKVIGKGAFGEVRLVQKKDTGKIYAMKTLLKSEMYKKDQLAHVKAERDVLAGSDSPWVVSLYYSFQDAQYLYLIMEFLPGGDLMTMLIRWQLFTEDVTRFYMAECILAIETIHKLGFIHRDIKPDNILIDIRGHIKLSDFGLSTGFHKTHDSNYYKKLLQQDEATNGISKPGTYNANTTDTANKRQTMVVDSISLTMSNRQQIQTWRKSRRLMAYSTVGTPDYIAPEIFLYQGYGQECDWWSLGAIMYECLIGWPPFCSETPQETYRKIMNFEQTLQFPDDIHISYEAEDLIRRLLTHADQRLGRHGGADEIKSHPFFRGVDWNTIRQVEAPYIPKLSSITDTRFFPTDELENVPDSPAMAQAAKQREQMTKQGGSAPVKEDLPFIGYTYSRFDYLTRKNAL
# partner: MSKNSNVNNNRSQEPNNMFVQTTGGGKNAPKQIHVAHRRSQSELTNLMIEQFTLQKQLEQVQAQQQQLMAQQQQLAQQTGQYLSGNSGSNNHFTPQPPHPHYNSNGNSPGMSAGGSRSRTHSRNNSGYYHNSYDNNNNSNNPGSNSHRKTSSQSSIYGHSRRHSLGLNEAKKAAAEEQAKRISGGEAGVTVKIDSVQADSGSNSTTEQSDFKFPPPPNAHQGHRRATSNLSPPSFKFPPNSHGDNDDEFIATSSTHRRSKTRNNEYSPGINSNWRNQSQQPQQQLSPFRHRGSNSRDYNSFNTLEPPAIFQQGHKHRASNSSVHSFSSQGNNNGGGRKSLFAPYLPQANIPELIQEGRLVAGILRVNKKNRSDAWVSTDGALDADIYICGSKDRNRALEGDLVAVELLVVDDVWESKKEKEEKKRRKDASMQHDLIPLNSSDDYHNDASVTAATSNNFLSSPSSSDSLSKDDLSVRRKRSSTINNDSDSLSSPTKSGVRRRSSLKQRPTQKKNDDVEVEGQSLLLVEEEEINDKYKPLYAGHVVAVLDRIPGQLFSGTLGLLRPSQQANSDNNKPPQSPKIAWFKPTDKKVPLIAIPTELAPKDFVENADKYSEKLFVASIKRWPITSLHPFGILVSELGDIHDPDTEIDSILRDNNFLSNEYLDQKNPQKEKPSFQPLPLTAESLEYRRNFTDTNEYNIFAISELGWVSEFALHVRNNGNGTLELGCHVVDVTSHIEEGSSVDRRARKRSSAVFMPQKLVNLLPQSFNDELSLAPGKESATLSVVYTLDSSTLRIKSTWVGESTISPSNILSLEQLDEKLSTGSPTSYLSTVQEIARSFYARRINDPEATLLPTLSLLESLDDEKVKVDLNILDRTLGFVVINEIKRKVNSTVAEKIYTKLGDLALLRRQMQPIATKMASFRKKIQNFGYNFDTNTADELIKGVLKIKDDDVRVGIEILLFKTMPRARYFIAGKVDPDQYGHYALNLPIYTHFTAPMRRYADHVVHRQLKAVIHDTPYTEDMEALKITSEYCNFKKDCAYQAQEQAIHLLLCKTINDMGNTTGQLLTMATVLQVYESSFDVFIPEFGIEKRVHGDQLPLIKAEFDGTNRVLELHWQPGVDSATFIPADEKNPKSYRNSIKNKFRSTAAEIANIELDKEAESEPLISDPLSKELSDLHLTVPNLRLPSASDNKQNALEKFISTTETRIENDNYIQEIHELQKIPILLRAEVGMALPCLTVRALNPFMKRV
# B3: Protein SSD1 (Saccharomyces cerevisiae), P24276 (parent)
# chain: B2 partner
# Variants of: B1
# Details: with cbk1_yeast CBK1, P53894
row,effect of a mutation on the interaction,Variant
1,disrupting interaction strength,P286A
2,decreasing interaction strength,N277A
3,disrupting interaction strength,F285A
4,decreasing interaction strength,I272A
5,disrupting interaction strength,Y283A

# Variants of: B2
# Details: with ssd1_yeast SSD1, P24276
row,effect of a mutation on the interaction,Variant
1,disrupting interaction strength,Y687A

# Variants of: B3
# Details: with cbk1_yeast CBK1, P53894
row,Variant,effect of a mutation on the interaction
1,F211W,disrupting interaction strength
2,F213W,disrupting interaction strength
3,F213Y,disrupting interaction strength
4,K212M,disrupting interaction strength
5,K212T,disrupting interaction strength
6,K212F,disrupting interaction strength
7,K212S,disrupting interaction strength
8,P214A,disrupting interaction strength

# Other lines, results leading:
row,effect of a mutation on the interaction,Variant
1,disrupting interaction strength,F211A
2,disrupting interaction strength,F213A
3,disrupting interaction strength,K212A
4,disrupting interaction strength,K212Q
5,disrupting interaction strength,K212D
